B1: d subunit of the Thermus thermophilus V/A-ATPase (natural protein)
chain: MADDFAYLNARVRVRRGTLLKESFFQEALDLSFADFLRLLSETVYGGELAGQGLPDVDRAVLRTQAKLVGDLPRLVTGEAREAVRLLLLRNDLHNLQALLRAKATGRPFEEVLLLPGTLREEVWRQAYEAQDPAGMAQVLAVPGHPLARALRAVLRETQDLARVEALLAKRFFEDVAKAAKGLDQPALRDYLALEVDAENLRTAFKLQGSGLAPDAFFLKGGRFVDRVRFARLMEGDYAVLDELSGTPFSGLSGVRDLKALERGLRCVLLKEAKKGVQDPLGVGLVLAYVKEREWEAVRLRLLARRAYFGLPRAQVEEEVVCP
notes: d subunit (subunit C) of the V/A-ATPase of Thermus thermophilus, strain HB8
B4: D subunit of the Thermus thermophilus V/A-ATPase (natural protein)
chain: MSQVSPTRMNLLQRRGQLRLAQKGVDLLKKKRDALVAEFFGLVREAMEARKALDQAAKEAYAALLLAQAFDGPEVVAGAALGVPPLEGVEAEVENVWGSKVPRLKATFPDGALLSPVGTPAYTLEASRAFRRYAEALIRVANTETRLKKIGEEIKKTTRRVNALEQVVIPGIRAQIRFIQQVLEQREREDTFRLKRIKGKIEAREAEEEGGRPNPQVEIGAGL
notes: D subunit (central shaft) of the V/A-ATPase of Thermus thermophilus, strain HB8; holds the short helix called screw driver helix (SDH); also called subunit D; axis subunit of the V1 domain; source: T. thermophilus membranes, V/A-ATPase purified (Ni-NTA by the His3 tag on the c-subunit, Resource Q), in nanodiscs

Tests used:
[1] = molecular target: T1, a subunit of the Thermus thermophilus V/A-ATPase (Thermus thermophilus, UniProt Q5SIT6 1-652); test: cryo-EM structure; isolated Vo (His3 tag on the c subunit) in nanodiscs (MSP1E3D1, DMPC by the methods), 20 mM Tris-HCl pH 8.0, 150 mM NaCl; CRYOARM200, K2 Summit; 3.9 Å; conditions: both partners purified
T1 construct: a subunit (subunit I) of the V/A-ATPase of Thermus thermophilus, strain HB8; soluble arm domain asol and C-terminal hydrophobic domain aCT (membrane domain printed as A327-E637); also called asol (soluble arm domain); aCT (membrane-embedded C-terminal region)
T1 sequence: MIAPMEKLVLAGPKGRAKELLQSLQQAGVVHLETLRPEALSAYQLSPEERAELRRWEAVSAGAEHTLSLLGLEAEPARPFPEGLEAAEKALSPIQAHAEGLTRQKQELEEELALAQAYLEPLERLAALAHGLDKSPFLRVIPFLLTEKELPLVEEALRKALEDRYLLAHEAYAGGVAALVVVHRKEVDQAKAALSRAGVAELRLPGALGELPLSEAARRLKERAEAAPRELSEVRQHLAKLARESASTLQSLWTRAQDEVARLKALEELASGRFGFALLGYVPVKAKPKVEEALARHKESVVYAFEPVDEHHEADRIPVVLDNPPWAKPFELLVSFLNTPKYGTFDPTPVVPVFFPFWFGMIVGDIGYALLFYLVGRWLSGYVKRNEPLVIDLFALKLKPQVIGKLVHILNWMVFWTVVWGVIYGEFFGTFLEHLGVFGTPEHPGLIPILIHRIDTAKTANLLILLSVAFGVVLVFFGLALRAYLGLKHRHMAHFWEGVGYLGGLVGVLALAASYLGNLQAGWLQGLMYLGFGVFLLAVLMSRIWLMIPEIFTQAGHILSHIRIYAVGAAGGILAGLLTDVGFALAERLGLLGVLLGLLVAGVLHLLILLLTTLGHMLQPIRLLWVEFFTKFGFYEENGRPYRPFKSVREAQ

[2] = molecular target: the molecule itself; test: as above
[3] = molecular target: B4; test: cryo-EM structure; holo V/A-ATPase (His3 tag on the c subunit) in nanodiscs (MSP1E3D1, POPC), 20 mM Tris-HCl pH 8.0, 150 mM NaCl, 2 mM MgCl2; Titan Krios, Falcon II; rotational state 1, 3.6 Å overall, 3.5 Å focused map of A3B3DFE2G2dasol; conditions: both partners purified
[4] = molecular target: B1; test: as above; conditions: both partners purified

B1: binds [1].

B2: c subunit of the Thermus thermophilus V/A-ATPase (c12 rotor ring) (natural protein)
chain: AEEAAASGGLDRGLIAVGMGLAVGLAALGTGVAQARIGAAGVGAIAEDRSNFGTALIFLLLPETLVIFGLLIAFILNGRL
notes: c subunit (subunit K/L, proteolipid) of the V/A-ATPase of Thermus thermophilus, strain HB8; chains Y and Z of the model are named in the text; Stands as a ring of twelve copies in Vo; also called c12 ring; c-ring; not shown: His3, C-terminal, kept; copies: 12
For B2, the “stoichiometry N” value [2] was 12.

B3: F subunit of the Thermus thermophilus V/A-ATPase (natural protein)
chain: MAVIADPETAQGFRLAGLEGYGASSAEEAQSLLETLVERGGYALVAVDEALLPDPERAVERLMRGRDLPVLLPIAGLKEAFQGHDVEGYMRELVRKTIGFDIKL
notes: F subunit (central shaft) of the V/A-ATPase of Thermus thermophilus, strain HB8; also called subunit F; source: T. thermophilus membranes, V/A-ATPase purified (Ni-NTA by the His3 tag on the c-subunit, Resource Q), in nanodiscs
B3: binds [3].

B4: binds [4].
